Measurements taken from patent US20100143379A1 (priority 2005, published 2010).

Assays:
ERK-1/2 [1] = experiment: ERK-1/2 phosphorylation in COS-7/M6 stable transformants (Western blot); assay type: cell-based; conditions: 100 ng/ml
PKA = experiment: Western analysis of kinase phosphorylation in COS-7/CD74+CD44 cells; assay type: cell-based; conditions: 100 ng/ml for 10 minutes
Experimental: FIGS. 12A-12E show the phosphoserine content of CD74 and CD44 measured by ELISA. […] The ELISA values represent the mean±SD of triplicate measurements. Experiments were replicated twice. *P<0.02 versus corresponding control (Student's T test, two-tailed). […] Cell lysates were prepared and probed for PKA and PKC using phospho-specific, and total anti-PKA and anti-PKC antibodies.
Cell lysates were collected and analyzed by immunoblots using a pair of anti-phospho-PICA and anti-(total)-PKA antibodies, a pair of anti-phospho-PKC (all from Cell Signaling) and anti-(total)-PKC (Santa Cruz) antibodies, or a pair of anti-phospho-p56^lck (Cell Signaling) and anti-(total) p56^lck (sc-433, Santa Cruz) antibodies.

primary macrophages = experiment: In vitro apoptosis, primary macrophages; assay type: cell-based, mouse; conditions: MIF 100 ng/ml; dependent on CD74 and CD44
Excerpt: Mice and Primary Cells. Wild-type (BALB/c or C57/B16), CD74-KO, (Shachar et al. (1996). Science 274:106-108), CD44-KO (Teder et al, (2002). Science 296:155-158), and MIF-KO (Bozza et al. (1999). J Exp Med 189:341-346), mice were bred at the Yale Animal Resource Center under strict, pathogen-free conditions. The KO strains were in genetically pure BALB/c or C57/B16 backgrounds (each at generation ≧N10). Mouse embryonic fibroblasts (MEFs) were obtained from 2 week-old embryos as described (Fingerle-Rowson et al. (2003). Proc Natl Acad Sci USA 100:9354-9359). […]
Apoptosis Studies. […] Cell lysates were collected, and caspase-3 activity analyzed using a colorimetric assay kit (R&D Systems). Cytoplasmic p53 content was analyzed as described previously (Mitchell et al. (2002). Proc Natl Acad Sci USA 99:345-350) by immunoblotting of mouse cytosolic fractions using a pair of anti-phospho-p53 (Ser15) (R&D Systems) and total anti-p53 antibodies (Cell Signaling); and for COS-7 cells, the anti-p53 (Ser15) and total anti-p53 antibodies (Cell Signaling). […] Mice were sacrificed 24 hrs after priming and the peritoneal macrophage cells collected and immediately analyzed for apoptosis by an ELISA that detects cytoplasmic oligonucleosomes (Roche Diagnostics). Primary macrophages also were immunostained by Alexa 488-conjugated, Annexin V (Invitrogen), and apoptotic cells enumerated by fluorescence microscopy.

erythroid progenitors = experiment: Cytotoxicity by Trypan blue exclusion; assay type: cell-based
Experimental: (§1) The human K562 progenitor cell line (ATCC, CCL-243) was cultured in RPMI/10% FBS supplemented with penicillin and streptomycin. For differentiation, sodium butyrate (AldRick, Milwaukee, Wis.) was added in the medium (Witt et al. 2000. Blood 95:2391-2396). Terminal erythropoietic differentiation was measured as described by McGukin et al. (McGuckin et al. 2003. European Journal of Haematology 70:106-114) and positive cells enumerated after staining with 2,7-diaminofluorene (Sigma, St. Louis, Mo.). To quantify hemoglobin synthesis, the cells were centrifuged and washed in PBS, and the cell pellet resuspended in lysis buffer (100 mM potassium phosphate pH 7.8, 0.2% Triton X-100) before disruption by aspiration through a 21-gauge needle. After microcentrifugation, the supernatant was collected and the hemoglobin concentration was determined using the hemoglobin kit from Sigma. Cell viability was assessed by trypan blue dye exclusion and found to be equivalent (85-90% viability) between all samples studied.

[2] = system: human K562 progenitor cell line; experiment: K562 terminal erythropoietic differentiation (DAF stain) and hemoglobin content; assay type: cell-based
Experimental: The neutralizing anti-MIF mAb was added at 100 μg/ml. DAF positive cells were enumerated and expressed as fold-change over total, input cells. FIG. 2B: cellular hemoglobin content of cultured K562 progenitor cells. […] Each value represents the mean±SD of at least three different experiments. *P<0.01 versus corresponding controls.
as §1

p38 = experiment: MAP kinase phosphorylation in differentiating K562 progenitors (Western blot); assay type: cell-based, human; conditions: 16 hrs, p<0.01; 96 hrs, p<0.04
Experimental: (§2) MIF addition markedly affected these differentiation-associated, MAP kinase responses.
(§3) Western Blot Analysis. Immunoblotting with antibodies directed against phospho-ERK1/2, total ERK1/2, phospho-JNK1/2, total JNK1/2, phospho-p38, and total p38 was performed according to the manufacturer's instructions (New England Biolabs, Beverly, Mass.). The secondary antibody was an anti-rabbit IgG conjugated to horseradish peroxidase and detection was by chemiluminescence according to the manufacture's instructions (Amersham Pharmacia Biotech, Piscataway, N.J.). For quantitation of signal intensity of phospho-specific kinase results, western blots were scanned using a UMAX, PowerLook IIII scanner and the images were analyzed using UN-SCAN-IT gel Automated Digitizing system software version 5.1 (Silk Scientific Corporation, USA). The ratio between phosphorylated to the total MAP kinase was determined and expressed as a fold-change for each lane (mean±S.E.M for three blots from independent cell cultures). The p values were calculated for each of the time course comparisons (4, 16, 96 hrs) of three different experiments (Student T-test, two-tailed).

ERK-1/2 [3] = experiment: as above; assay type: cell-based, human; conditions: K562 in differentiation medium
Experimental: as §2, §3

JNK-1/2 = experiment: as above; assay type: cell-based, human; conditions: vs differentiation medium alone; did not reach statistical significance (96 hrs, p<0.06)
Experimental: as §2, §3

B1: MIF: macrophage migration inhibitory factor; recombinant mouse or human MIF purified essentially free of endotoxin (protein)
chain: PMFIVNTNVPRASVPDGFLSELTQQLAQATGKPPQYIAVHVVPDQLMAFGGSSEPCALCSLHSIGKIGGAQNRSYSKLLCGLLAERLRISPDRVYINYYDMNAANVGWNNSTFA
time of decay of ERK-1/2 phosphorylation (ERK-1/2 [1]): 30 min
ERK-1/2 phosphorylation (ERK-1/2 [1]; cells transfected with CD74, CD44, CD74+CD44 or CD74+CD44^Δ67): induced ERK-1/2 phosphorylation only in those cells expressing both CD74 and full-length CD44
phosphorylation of PKA (PKA): MIF-dependent phosphorylation of PKA
protection from apoptosis (primary macrophages): almost complete
cytotoxic effects (erythroid progenitors): Neither MIF nor anti-MIF were found to exert cytotoxic effects
terminal erythropoietic differentiation (DAF stain) ([2]; MIF 200 ng/ml for 96 hrs): inhibited the terminal erythropoietic differentiation
hemoglobin production ([2]; cellular hemoglobin content of cultured K562 progenitor cells): inhibition of cytodifferentiation and hemoglobin production
differentiation-associated changes in p38 MAP kinase phosphorylation (p38): reduced
duration of ERK-1/2 phosphorylation (ERK-1/2 [3]): at least 96 hrs
ERK-1/2 phosphorylation (ERK-1/2 [3]; 16 hrs): phosphorylation was high at 16 hrs
JNK-1/2 phosphorylation (JNK-1/2): appeared to upregulate JNK-1/2 phosphorylation
